According to PMC4282830:

Target: guanidine hydrochloride denatured vitamin D binding protein (human) (UniProt P02774)
Test: covalent complex formation, reducing SDS-PAGE and immunoblot

UniProt P02774, sequence (P02774 17-474): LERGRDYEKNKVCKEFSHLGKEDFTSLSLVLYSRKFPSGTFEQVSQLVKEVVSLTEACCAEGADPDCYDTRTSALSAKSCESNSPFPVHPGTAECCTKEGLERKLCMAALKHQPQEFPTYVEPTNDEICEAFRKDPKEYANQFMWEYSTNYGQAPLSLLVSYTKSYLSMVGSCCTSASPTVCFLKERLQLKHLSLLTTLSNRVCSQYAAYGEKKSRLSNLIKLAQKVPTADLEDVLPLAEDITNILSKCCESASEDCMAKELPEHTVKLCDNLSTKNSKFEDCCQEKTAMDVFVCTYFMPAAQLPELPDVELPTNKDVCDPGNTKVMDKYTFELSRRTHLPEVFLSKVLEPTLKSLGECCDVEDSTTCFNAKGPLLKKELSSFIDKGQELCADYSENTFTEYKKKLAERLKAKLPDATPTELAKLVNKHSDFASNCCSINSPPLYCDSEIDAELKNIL

In the case of complement C3b (natural protein), the fold increase in intensity of the C3b:DBP band, denatured versus native DBP is reported as 5 fold.
